Literature values in article PMC4258470.

How the values were obtained:
[1] = target: HPV16 E7 CR1-CR2 (Human papillomavirus type 16) (UniProt P03129)
[2] = target: p53 N-terminal transactivation domain (Homo sapiens) (UniProt P04637)
Chain of p53 N-terminal transactivation domain (Homo sapiens) (P04637 1-61): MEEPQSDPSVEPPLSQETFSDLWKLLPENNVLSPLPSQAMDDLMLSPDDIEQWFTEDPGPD

Chain of HPV16 E7 CR1-CR2 (Human papillomavirus type 16) (P03129 1-40): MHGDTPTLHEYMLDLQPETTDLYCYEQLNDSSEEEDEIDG
Chain of pRb (P06400 2-928): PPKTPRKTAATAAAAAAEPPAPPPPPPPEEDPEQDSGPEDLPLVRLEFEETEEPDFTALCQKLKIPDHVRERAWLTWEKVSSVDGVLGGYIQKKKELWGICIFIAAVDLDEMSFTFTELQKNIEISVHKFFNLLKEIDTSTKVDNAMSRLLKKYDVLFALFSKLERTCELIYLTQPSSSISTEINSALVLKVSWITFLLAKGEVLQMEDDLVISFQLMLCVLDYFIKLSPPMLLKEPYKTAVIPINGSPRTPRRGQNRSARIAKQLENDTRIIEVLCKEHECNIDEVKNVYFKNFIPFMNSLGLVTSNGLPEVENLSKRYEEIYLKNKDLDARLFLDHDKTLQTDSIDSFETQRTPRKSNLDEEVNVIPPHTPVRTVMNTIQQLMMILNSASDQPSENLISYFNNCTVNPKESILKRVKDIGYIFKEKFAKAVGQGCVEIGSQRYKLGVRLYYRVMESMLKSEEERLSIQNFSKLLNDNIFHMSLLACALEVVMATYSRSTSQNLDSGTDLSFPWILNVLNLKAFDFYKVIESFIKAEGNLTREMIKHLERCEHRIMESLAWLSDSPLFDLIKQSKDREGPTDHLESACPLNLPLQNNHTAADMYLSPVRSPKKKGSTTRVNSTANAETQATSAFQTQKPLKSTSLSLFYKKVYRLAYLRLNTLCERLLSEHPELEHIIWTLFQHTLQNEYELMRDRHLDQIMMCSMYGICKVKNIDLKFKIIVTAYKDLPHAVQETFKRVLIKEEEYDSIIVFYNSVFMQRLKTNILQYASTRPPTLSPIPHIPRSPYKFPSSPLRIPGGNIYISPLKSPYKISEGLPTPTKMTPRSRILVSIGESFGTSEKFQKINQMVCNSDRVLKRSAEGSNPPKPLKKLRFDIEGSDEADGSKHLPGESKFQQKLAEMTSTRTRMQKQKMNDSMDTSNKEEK
Chain of CBP TAZ2 (P45481 1766-1847): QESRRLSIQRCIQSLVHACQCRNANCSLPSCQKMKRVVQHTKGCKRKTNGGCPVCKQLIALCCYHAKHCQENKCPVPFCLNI

Row | Kd [2] [nM] | Substance | Kd [1] [nM]
1 |  | pRb (from UniProt P06400) | 2
2 | 20 | CBP TAZ2 (from UniProt P45481) | 
